Assay results: publication PMC11191739, “Structural Flexibility and Disassembly Kinetics of Single Ferritin Molecules Using Optical Nanotweezers” (ACS Nano, 2024)

Biological target: the molecule itself
Assay: mass photometry; 50 nM ferritin at pH 2, measured at 1, 3 and 60 min, TwoMP mass photometer

B1: holo-ferritin (derived from equine spleen, F4503) (natural protein)
chain 1: MSSQIRQNYSTEVEAAVNRLVNLYLRASYTYLSLGFYFDRDDVALEGVCHFFRELAEEKREGAERLLKMQNQRGGRALFQDLQKPSQDEWGTTLDAMKAAIVLEKSLNQALLDLHALGSAQADPHLCDFLESHFLDEEVKLIKKMGDHLTNIQRLVGSQAGLGEYLFERLTLKHD
chain 2: MTTAFPSQVRQNYHQDSEAAINRQINLELHASYVYLSMSFYFDRDDVALKNFAKYFLHQSHEEREHAEKLMKLQNQRGGRIFLQDIKKPDQDDWENGLKAMECALHLEKNVNESLLELHKLATDKNDPHLCDFLETHYLNEQVKAIKELGDHVTNLRRMGAPESGMAEYLFDKHTLGECDES
notes: ferritin light (L) chain, equine spleen; ferritin heavy (H) chain, equine spleen; It carries a ferrihydrite iron core; Rows of m1 with itself describe the self-association of the subunits; also called equine spleen ferritin; source: bought: Sigma-Aldrich (F4503), derived from equine spleen
stoichiometry N: 18
